Assay results taken from patent EP1073891B1, “METHOD OF PREDICTING RECEPTOR MODULATING ACTIVITY” (Duke University, priority 1998, dated 1999).
Positions count from the first letter of the chain named.

Key:
Type in all cases: cell-based
ERα-VP16 = molecular target: T1, ERα-VP16 (Homo sapiens, UniProt P03372); assay: Mammalian two-hybrid in HepG2 cells, Gal4-peptide fusions, luciferase reporter (Example 4.1); settings: Gal4-peptide fusion, various ligands (Fig. 7)
T1 construct: expressed in transfected cells; host or cells: HepG2
T1 sequence (P03372 1-595): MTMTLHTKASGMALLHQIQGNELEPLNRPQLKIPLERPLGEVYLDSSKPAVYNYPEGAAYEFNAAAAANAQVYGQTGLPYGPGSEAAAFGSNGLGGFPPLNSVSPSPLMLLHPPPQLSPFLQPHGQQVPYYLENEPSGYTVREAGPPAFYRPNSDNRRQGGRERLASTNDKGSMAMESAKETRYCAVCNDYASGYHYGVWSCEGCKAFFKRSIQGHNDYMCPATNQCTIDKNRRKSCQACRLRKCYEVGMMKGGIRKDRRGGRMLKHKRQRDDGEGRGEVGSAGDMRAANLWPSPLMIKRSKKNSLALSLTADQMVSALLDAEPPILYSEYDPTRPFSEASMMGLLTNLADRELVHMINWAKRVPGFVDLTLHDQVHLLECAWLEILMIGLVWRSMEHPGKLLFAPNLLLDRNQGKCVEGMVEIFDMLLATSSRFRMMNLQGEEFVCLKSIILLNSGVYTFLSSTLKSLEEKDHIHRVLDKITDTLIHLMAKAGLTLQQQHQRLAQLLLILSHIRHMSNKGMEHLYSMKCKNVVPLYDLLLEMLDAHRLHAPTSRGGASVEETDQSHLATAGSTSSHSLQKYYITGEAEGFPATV
Excerpt: (§1) Peptide sequences representing each class was fused to the DNA binding domain (DBD) of the yeast transcription factor Ga14. HepG2 cells were then transiently transfected with expression vectors for ERα-VP16 and the Gal4-peptide fusion proteins. In addition, a luciferase reporter construct under the control of 5 copies of a Ga14 upstream enhancer element was also transfected along with a pCMV-β galactosidase vector to normalize for transfection efficiency. Transfection of the Ga14 DBD alone is included as control. Cells were then induced with various ligands as indicated in the figure and assayed for luciferase activity and β galactosidase activity. Normalized response was obtained by dividing the luciferase activity by the β galactosidase activity.

ER3X (D538N/E542Q/D545N) = molecular target: T2, ER3X (D538N/E542Q/D545N) (Homo sapiens, UniProt P03372, D538N/D545N/E542Q); assay: Mammalian two-hybrid with ERα AF-2 mutants (Examples 4.3, 101.3); settings: mammalian two-hybrid (Fig. 9)
T2 construct: expressed in transfected cells
T2 sequence (P03372 1-595 D538N/E542Q/D545N): T1 sequence (P03372 1-595) with D538N, E542Q, D545N
Excerpt: as §1
(§2) Three ERα mutants were compared with wild-type ERα. ER-LL was characterized by mutations L540A/L541A. Mutant ER3X was characterized by mutations D538N/E542Q/D545N. Finally, mutant ER-535 STOP was truncated after residue V535. […] Experimental design is the same as in figure 7 except that either (A) ER3X (B) ERLL or (C) ER535-stop was analyzed for binding to conformation sensitive peptides.
(§3) To test whether different LXXLL motif peptides interact within the same region of ER, mammalian two hybrid assays were used. Selected peptide sequences and different ER mutants (ER-LL, ER-3X, ER-535 STOP) were expressed as fusion proteins to Gal4DBD and VP16 (TAD), respectively.

ER535-stop = molecular target: T3, ER535-stop (Homo sapiens, UniProt P03372); assay: as above; settings: mammalian two-hybrid (Fig. 9)
T3 construct: mutant ER-535 STOP was truncated after residue V535; expressed in transfected cells
T3 sequence (P03372 1-534): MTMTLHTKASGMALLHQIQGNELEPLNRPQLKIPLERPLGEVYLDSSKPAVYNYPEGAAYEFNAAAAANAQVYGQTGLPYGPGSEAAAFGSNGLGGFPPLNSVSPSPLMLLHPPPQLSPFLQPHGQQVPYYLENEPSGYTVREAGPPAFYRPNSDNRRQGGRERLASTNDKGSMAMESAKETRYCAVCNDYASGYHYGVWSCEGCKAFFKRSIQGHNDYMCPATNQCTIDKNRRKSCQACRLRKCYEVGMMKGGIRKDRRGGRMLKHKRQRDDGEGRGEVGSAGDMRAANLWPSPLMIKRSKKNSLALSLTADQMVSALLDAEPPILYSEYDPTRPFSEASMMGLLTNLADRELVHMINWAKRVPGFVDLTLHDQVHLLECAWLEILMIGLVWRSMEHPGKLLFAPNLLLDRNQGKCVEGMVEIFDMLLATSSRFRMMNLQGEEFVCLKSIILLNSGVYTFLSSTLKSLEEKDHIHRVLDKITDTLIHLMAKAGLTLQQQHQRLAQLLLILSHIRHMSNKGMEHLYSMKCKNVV
Excerpt: as §1, §2, §3

ERα = molecular target: T4, ERα (Homo sapiens, UniProt P03372); assay: Disruption of ER mediated transcriptional activity, C3-Luc reporter in HepG2 cells (Example 4.4); settings: Gal4-peptide fusion; for block of the partial agonist activity of tamoxifen: 4-OH tamoxifen activated ER; for inhibition of the ability of estradiol to activate transcription: estradiol (10 nM) activated ER
T4 sequence (P03372 1-595): T1 sequence (P03372 1-595)
Excerpt: Then HepG2 cells were transfected as above except that expression vectors for Gal4-peptide fusions were included as indicated in 10B. […] Increasing amounts of input plasmid for each Gal4-peptide fusion is also shown with the resulting transcriptional activity presented as % activation of control.

SSNHQSSRLIELLSR [α/β I]
interaction with ERα (normalized luciferase response) (ERα-VP16): interacts with ER in the presence of estradiol and somewhat with the apo-receptor
interaction with the ER3X mutant receptor (ER3X (D538N/E542Q/D545N)): retains some ability to engage
interaction with the ER535-stop mutant receptor (ER535-stop): unable to interact
block of the partial agonist activity of tamoxifen (ERα): is not
inhibition of the ability of estradiol to activate transcription (ERα): up to 50%

SSLTSRDFGSWYASR [α II]
interaction with ERα (normalized luciferase response) (ERα-VP16): interacts with the receptor under all conditions with the apo-receptor and ICI 182,780 bound receptor showing the least activity
interaction with the ER3X mutant receptor (ER3X (D538N/E542Q/D545N)): largely unaffected
interaction with the ER535-stop mutant receptor (ER535-stop): largely unaffected
block of the partial agonist activity of tamoxifen (ERα): efficiently block
inhibition of the ability of estradiol to activate transcription (ERα): up to 50%

SSWDMHQFFWEGVSR [α/β III]
interaction with ERα (normalized luciferase response) (ERα-VP16): interact almost exclusively with the tamoxifen bound receptor
interaction with the ER3X mutant receptor (ER3X (D538N/E542Q/D545N)): loss of the tamoxifen specificity
interaction with the ER535-stop mutant receptor (ER535-stop): loss of the tamoxifen specificity
block of the partial agonist activity of tamoxifen (ERα): efficiently block
block of estradiol mediated transcription (ERα): inability

SSPGSREWFKDMLSR [α/β V]
interaction with ERα (normalized luciferase response) (ERα-VP16): interact almost exclusively with the tamoxifen bound receptor
interaction with the ER3X mutant receptor (ER3X (D538N/E542Q/D545N)): loss of the tamoxifen specificity
interaction with the ER535-stop mutant receptor (ER535-stop): loss of the tamoxifen specificity
block of the partial agonist activity of tamoxifen (ERα): efficiently block
block of estradiol mediated transcription (ERα): inability
